Measured values taken from paper PMC6751169, “Modular enzyme assembly for enhanced cascade biocatalysis and metabolic flux” (Nature Communications, 2019).

Molecular target: the molecule itself
Experiment: not stated; oligomeric state of the untagged enzymes; the sentence points to Supplementary Figs. 1 and 2

B1: MenD (2-succinyl-5-enolpyruvyl-6-hydroxy-3-cyclohexadiene-1-carboxylate synthase), untagged (enzyme, E. coli, UniProt P17109 1-556, looked up)
chain: MSVSAFNRRWAAVILEALTRHGVRHICIAPGSRSTPLTLAAAENSAFIHHTHFDERGLGHLALGLAKVSKQPVAVIVTSGTAVANLYPALIEAGLTGEKLILLTADRPPELIDCGANQAIRQPGMFASHPTHSISLPRPTQDIPARWLVSTIDHALGTLHAGGVHINCPFAEPLYGEMDDTGLSWQQRLGDWWQDDKPWLREAPRLESEKQRDWFFWRQKRGVVVAGRMSAEEGKKVALWAQTLGWPLIGDVLSQTGQPLPCADLWLGNAKATSELQQAQIVVQLGSSLTGKRLLQWQASCEPEEYWIVDDIEGRLDPAHHRGRRLIANIADWLELHPAEKRQPWCVEIPRLAEQAMQAVIARRDAFGEAQLAHRICDYLPEQGQLFVGNSLVVRLIDALSQLPAGYPVYSNRGASGIDGLLSTAAGVQRASGKPTLAIVGDLSALYDLNALALLRQVSAPLVLIVVNNNGGQIFSLLPTPQSERERFYLMPQNVHFEHAAAMFELKYHRPQNWQELETAFADAWRTPTTTVIEMVVNDTDGAQTLQQLLAQVSHL
notes: MenD, 2-succinyl-5-enolpyruvyl-6-hydroxy-3-cyclohexadiene-1-carboxylate synthase, E. coli; subunit 63 kDa; 'Untagged' means without RIAD or RIDD; also called untagged MenD; non-tagged enzyme
With B1 the “stoichiometry N” value was 4.
